Measured values from patent US20230272110A1 (LAVA THERAPEUTICS N V, published 2023).
Values belong to the binder of their own block, whether it stands above or below them.

Tests used:
[1] = target: T1, human PSMA on PSMA-positive prostate cancer cells (LNCaP, 22Rv1, VCaP, patient-derived tumor cells) (human, UniProt Q04609 1-750); assay: FACS on PSMA-positive LNCaP cells, detection with polyclonal anti-human IgG
T1 construct: Endogenous PSMA on tumor cell lines; also called Prostate-Specific Membrane Antigen; FOLH1
Method: To test the binding of the molecule to PSMA, a concentration range of antibody was tested for binding to the PSMA positive prostate cancer cell line LNCaP and to the antigen negative cell line PC-3. Detection was performed with a polyclonal anti-human IgG antibody.

[2] = target: T1, human PSMA on PSMA-positive prostate …; assay: cell-based or functional assay
[3] = target: recombinant human PSMA, biotinylated (hPSMA) (human, UniProt Q04609 44-750, biotinylated (site not stated)); assay: BLI, biotinylated hPSMA on streptavidin biosensors, antibody as analyte 3.125-200 nM; mean of n = 3, SD 1.24E-09
[4] = target: T1, human PSMA on PSMA-positive prostate …; assay: cell-based or functional assay; remark: listed apart in the source
[5] = target: T1, human PSMA on PSMA-positive prostate …; assay: cell-based or functional assay; remark: listed apart in the source

T1 sequence (Q04609 whole entry): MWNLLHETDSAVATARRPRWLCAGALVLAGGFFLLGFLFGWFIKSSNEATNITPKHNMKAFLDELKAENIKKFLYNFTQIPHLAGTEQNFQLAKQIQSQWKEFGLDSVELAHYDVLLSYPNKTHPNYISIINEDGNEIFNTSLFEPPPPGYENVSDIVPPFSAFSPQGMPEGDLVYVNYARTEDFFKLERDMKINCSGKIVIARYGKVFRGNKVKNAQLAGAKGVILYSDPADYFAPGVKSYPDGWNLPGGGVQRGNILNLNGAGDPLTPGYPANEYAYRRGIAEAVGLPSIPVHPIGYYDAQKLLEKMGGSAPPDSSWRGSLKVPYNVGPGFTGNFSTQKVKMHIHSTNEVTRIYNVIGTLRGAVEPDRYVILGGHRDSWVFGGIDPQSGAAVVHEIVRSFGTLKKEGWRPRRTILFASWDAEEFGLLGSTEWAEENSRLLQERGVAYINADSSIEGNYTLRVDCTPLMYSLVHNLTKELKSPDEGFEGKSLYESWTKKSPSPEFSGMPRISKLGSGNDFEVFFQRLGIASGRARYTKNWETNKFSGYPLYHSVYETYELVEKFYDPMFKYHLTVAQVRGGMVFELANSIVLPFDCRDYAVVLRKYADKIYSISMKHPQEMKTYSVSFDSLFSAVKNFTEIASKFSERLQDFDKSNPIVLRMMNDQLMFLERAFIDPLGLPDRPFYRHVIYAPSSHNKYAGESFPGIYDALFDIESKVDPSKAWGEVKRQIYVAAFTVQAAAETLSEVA
recombinant human PSMA, biotinylated (hPSMA), sequence (Q04609 44-750 limits assumed): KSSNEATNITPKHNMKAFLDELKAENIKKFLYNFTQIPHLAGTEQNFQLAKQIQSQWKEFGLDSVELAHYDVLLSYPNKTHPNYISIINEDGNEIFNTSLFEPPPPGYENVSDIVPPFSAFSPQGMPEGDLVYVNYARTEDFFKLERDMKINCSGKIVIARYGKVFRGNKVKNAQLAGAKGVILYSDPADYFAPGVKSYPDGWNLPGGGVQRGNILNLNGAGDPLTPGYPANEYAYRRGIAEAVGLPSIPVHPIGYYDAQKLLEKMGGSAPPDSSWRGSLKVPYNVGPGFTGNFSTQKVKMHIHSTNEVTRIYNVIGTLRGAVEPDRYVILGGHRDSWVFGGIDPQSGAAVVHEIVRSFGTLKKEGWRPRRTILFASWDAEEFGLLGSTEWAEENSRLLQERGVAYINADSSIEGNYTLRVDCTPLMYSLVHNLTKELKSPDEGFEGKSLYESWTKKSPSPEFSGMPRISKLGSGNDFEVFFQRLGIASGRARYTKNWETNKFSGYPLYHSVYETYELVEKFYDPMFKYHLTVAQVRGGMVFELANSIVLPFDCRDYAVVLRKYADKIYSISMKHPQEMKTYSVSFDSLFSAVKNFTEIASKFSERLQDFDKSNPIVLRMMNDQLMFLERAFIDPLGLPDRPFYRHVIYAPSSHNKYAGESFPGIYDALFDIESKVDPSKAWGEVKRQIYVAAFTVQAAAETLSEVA

EC50 [1]: 7.3 nM | Mean EC50, degranulation (CD107a) after 4 hours, 22Rv1, E:T 1:1 [2]: 0.029 nM | Mean EC50, degranulation (CD107a) after 4 hours, LNCaP, E:T 1:1 [2]: 0.016 nM | Mean EC50, degranulation (CD107a) after 4 hours, VCaP, E:T 1:1 [2]: 0.028 nM | Kd [3]: 31.6 nM
B1: LV1050-Fc x 5C8var1-Fc (bispecific antibody, V domains shown)
V domain 1: EVQLVESGGGLVQPGGSLRLSCAASRFMISEYSMHWVRQAPGKGLEWVSTINPAGTTDYADSVKGRFTISRDNAKNTLYLQMNSLRAEDTAVYYCDGYGYRGQGTQVTVSS
V domain 2: EVQLLESGGGSVQPGGSLRLSCAASGRPFSNYAMSWFRQAPGKEREFVSAISWSGGSTSYADSVKGRFTISRDNSKNTLYLQMNSLRAEDTAVYYCAAQFSGADYGFGRLGIRGYEYDYWGQGTQVTVSS
notes: Knob-into-hole heterodimer of two VHH-Fc chains; also called 5C8var1-Fc x LV1050-Fc; lead bispecific antibody
Mean EC50, cytotoxicity after 24 hours (CytoTox-Glo), 22Rv1, E:T 1:1 [2]: 0.013 nM | Mean EC50, cytotoxicity after 24 hours (CytoTox-Glo), LNCaP, E:T 1:1 [2]: 0.017 nM | Mean EC50, cytotoxicity after 24 hours (CytoTox-Glo), VCaP, E:T 1:1 [2]: 0.015 nM | EC50, Vγ9Vδ2 T cell mediated cytotoxicity of LNCaP cells, 24 h, E:T 1:1 [4]: 0.0105 nM | EC50 for cytotoxicity, LNCaP target cells, 24 h, 7AAD in FACS, E:T 1:1 [4]: 0.0094 nM | Mean EC50, Vγ9Vδ2-T cell cytotoxicity of LNCaP cells, 24 h, E:T 1:1 [5]: 0.017 nM | Mean EC50, Vγ9Vδ2-T cell cytotoxicity of LNCaP cells, 24 h, E:T 1:10 [5]: 0.0099 nM

B2: LV1044-5C8 (bispecific antibody)
chain: EVQLVESGGGLVQPGGSLTLSCAASRFMISEYSMHWVRQAPGKGLEWVSTINPAGTTDYAESVKGRFTISRDNAKNTLYLQMNSLKPEDTAVYYCDGYGYRGQGTQVTVSSGGGGSEVQLVESGGGLVQAGGSLRLSCAASGRPFSNYAMGWFRQAPGKEREFVAAISWSGGSTSYADSVKGRFTISRDNAKNTVYLQMNSPKPEDTAIYYCAAQFSGADYGFGRLGIRGYEYDYWGQGTQVTVSS
EC50, Vγ9Vδ2 T cell mediated cytotoxicity of LNCaP cells, 24 h, E:T 1:1 [4]: 0.0016 nM | EC50 for cytotoxicity, LNCaP target cells, 24 h, 7AAD in FACS, E:T 1:1 [4]: 0.0019 nM

B3: LV1050-5C8var1 (bispecific antibody)
chain: EVQLVESGGGLVQPGGSLRLSCAASRFMISEYSMHWVRQAPGKGLEWVSTINPAGTTDYADSVKGRFTISRDNAKNTLYLQMNSLRAEDTAVYYCDGYGYRGQGTQVTVSSGGGGSEVQLLESGGGSVQPGGSLRLSCAASGRPFSNYAMSWFRQAPGKEREFVSAISWSGGSTSYADSVKGRFTISRDNSKNTLYLQMNSLRAEDTAVYYCAAQFSGADYGFGRLGIRGYEYDYWGQGTQVTVSSAAAEPEA
EC50, Vγ9Vδ2 T cell mediated cytotoxicity of LNCaP cells, 24 h, E:T 1:1 [4]: 0.0022 nM | EC50 for cytotoxicity, LNCaP target cells, 24 h, 7AAD in FACS, E:T 1:1 [4]: 0.0019 nM
